The stoichiometry N is the number of molecules, sites or subunits per partner or assembly.

This series concerns the molecule itself. Description: crystal structure.

B1: Yersinia pestis FabG (ketoacyl-acyl carrier protein reductase) (enzyme)
chain: MSFEGKIALVTGASRGIGRAIAELLVERGACVIGTATSEKGAEAISAYLGENGKGLMLNVVDPTSIDTVLATIRAEFGEVDILVNNAGITRDNLLMRMKDDEWQDIIDTNLTSVFRLSKAVMRAMMKKRFGRIITIGSVVGTMGNAGQVNYAAAKAGVIGFSKSLAREVASRGITVNVVAPGFIETDMTRTLTDDQRAGILAQVPANRLGDAKEIASAVAFLASDEASYISGETLHVNGGMYMI
notes: also called YpFabG; YpFabG TMAO
On to B1, for which the “stoichiometry N” value came to 4.

The values above are taken from article PMC4635001, “Structural Characterisation of FabG from Yersinia pestis, a Key Component of Bacterial Fatty Acid Synthesis” (PLoS ONE, 2015).
